Measurements published in US20210214414A1 (Pfizer, published 2021).

Assays:
[1] = molecular target: T1, Rat SLIT2-N (rat, UniProt Q9WVC1 31-766, limits assumed); test: SPR, ROBO2-Fc 2.2 captured by anti-human Fc on a C1 chip, rat SLIT2-N as analyte, 1:1 model
T1 construct: domain: SLIT2-N (N terminal fragment)
T1 sequence (looked up): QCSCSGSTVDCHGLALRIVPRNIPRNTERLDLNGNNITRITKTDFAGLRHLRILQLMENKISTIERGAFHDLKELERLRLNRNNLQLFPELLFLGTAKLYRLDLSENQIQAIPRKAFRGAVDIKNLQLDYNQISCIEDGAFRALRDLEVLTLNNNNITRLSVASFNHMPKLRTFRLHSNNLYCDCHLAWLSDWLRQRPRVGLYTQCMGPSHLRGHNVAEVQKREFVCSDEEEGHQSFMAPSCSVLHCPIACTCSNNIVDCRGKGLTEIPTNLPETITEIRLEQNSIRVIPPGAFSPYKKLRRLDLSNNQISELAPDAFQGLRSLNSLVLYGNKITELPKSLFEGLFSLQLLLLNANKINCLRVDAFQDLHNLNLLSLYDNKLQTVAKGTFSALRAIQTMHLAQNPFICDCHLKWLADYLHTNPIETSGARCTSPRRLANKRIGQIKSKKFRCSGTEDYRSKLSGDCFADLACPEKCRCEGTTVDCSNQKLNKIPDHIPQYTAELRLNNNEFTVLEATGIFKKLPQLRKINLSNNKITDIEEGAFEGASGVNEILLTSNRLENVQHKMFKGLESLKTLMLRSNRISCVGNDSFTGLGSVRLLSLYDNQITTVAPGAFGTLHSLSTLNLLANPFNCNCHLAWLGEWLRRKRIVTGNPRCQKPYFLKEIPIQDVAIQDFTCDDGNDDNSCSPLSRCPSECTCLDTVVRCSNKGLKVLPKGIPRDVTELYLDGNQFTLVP
Method: HBS-EP was used as a diluent. […] An 8 point 2-fold dilution series was performed on the SLIT2 ligands, ranging from 2 nM to 15.6 pM using HBS-EPB as the diluent. […] Association of the indicated SLIT2 ligand was followed for 120 s and dissociation monitored for 180 s. The apparent binding affinity was determined using a simple 1:1 interaction model of the kinetic rate constants.

[2] = molecular target: T2, Rat SLIT1-N (rat, UniProt O88279 34-1124, limits assumed); test: HTRF competition: d2-labelled rat SLIT1-N binding to human ROBO2 on HEK293 cells; geometric mean, n=3
T2 construct: domain: SLIT1-N; d2-labelled in the HTRF assay
T2 sequence (looked up): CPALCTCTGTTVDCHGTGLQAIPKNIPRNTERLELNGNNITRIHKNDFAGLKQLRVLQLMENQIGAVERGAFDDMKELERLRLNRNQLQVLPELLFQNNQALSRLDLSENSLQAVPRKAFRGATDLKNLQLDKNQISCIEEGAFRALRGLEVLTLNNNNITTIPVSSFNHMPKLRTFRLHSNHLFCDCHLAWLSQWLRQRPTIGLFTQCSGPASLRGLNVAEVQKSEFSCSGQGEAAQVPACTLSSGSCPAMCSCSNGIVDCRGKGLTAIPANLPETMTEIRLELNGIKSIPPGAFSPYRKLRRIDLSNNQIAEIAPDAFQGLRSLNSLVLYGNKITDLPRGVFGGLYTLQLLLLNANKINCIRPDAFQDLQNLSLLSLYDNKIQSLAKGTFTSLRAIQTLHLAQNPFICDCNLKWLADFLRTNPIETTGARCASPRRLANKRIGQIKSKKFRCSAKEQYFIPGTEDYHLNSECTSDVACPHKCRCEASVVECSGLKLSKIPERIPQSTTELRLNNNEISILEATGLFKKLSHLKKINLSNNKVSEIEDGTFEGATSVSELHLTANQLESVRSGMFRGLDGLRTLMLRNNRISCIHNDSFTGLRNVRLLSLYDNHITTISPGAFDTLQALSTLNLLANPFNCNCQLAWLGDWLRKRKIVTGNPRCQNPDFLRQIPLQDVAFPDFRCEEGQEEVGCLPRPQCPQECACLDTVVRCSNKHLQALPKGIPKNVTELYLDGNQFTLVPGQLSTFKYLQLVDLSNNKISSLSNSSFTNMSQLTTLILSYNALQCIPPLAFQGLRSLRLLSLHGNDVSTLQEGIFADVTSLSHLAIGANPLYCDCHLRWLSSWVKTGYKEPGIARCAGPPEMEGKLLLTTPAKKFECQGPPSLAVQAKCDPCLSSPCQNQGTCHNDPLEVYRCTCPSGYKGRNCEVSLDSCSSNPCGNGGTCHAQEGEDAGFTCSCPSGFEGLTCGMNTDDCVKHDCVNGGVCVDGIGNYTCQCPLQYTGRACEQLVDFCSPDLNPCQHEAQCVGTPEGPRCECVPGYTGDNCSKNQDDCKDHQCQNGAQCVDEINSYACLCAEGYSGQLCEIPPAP
Method: (§1) After incubation, fluorescence at 665 nm and 620 nm was measured on an Envision multilabel plate reader. The HTRF Ratio was calculated as follows: fluorescence at 665 nm/fluorescence at 620 nm×10,000. […] The IC₅₀ for each SLITx-N was determined using an 11-point, 4-fold dilution series with a top concentration of 4000 nM.

[3] = molecular target: T1, Rat SLIT2-N; test: HTRF competition: d2-labelled rat SLIT2-N binding to human ROBO2 on HEK293 cells (competitor: cell surface ROBO2)
Method: as §1

B1: ROBO2-Fc 2.2 (Fc fusion)
chain: SRLRQEDFPPRIVEHPSDVIVSKGEPTTLNCKAEGRPTPTIEWYKDGERVETDKDDPRSHRMLLPSGSLFFLRIVHGRRSKPDEGSYVCVARNYLGEAVSRNASLEVALLRDDFRQNPTDVVVAAGEPAILECQPPRGHPEPTIYWKKDKVRIDDKEERISIRGGKLMISNTRKSDAGMYTCVGTNMVGERDSDPAELTVFERGGSGGSEPKSSDKTHTCPPCPAPEAAGAPSVFLFPPKPKDTLMISRTPEVTCVVVDVSHEDPEVKFNWYVDGVEVHNAKTKPREEQYNSTYRVVSVLTVLHQDWLNGKEYKCKVSNKALPAPIEKTISKAKGQPREPQVYTLPPSREEMTKNQVSLTCLVKGFYPSDIAVEWESNGQPENNYKTTPPVLDSDGSFFLYSKLTVDKSRWQQGNVFSCSVMHEALHNHYTQKSLSLSPG
notes: Labelled with Alexa Fluor 647 in the flow cytometry assay; also called ROBO-Fc 2.2; ROBO2-Fc 2.2-AF647
A Kd [1] of 0.543 nM, an IC50 [2] of 8.3 nM and an IC50 [3] of 4 nM were found for B1 in this work.
